B1: GRB10-interacting GYF protein 1 (Homo sapiens), O75420 (parent)
chain: MAAETLNFGPEWLRALSGGGSVASPPPSPAMPKYKLADYRYGREEMLALYVKENKVPEELQDKEFAAVLQDEPLQPLALEPLTEEEQRNFSLSVNSVAVLRLMGKGAGPPLAGTSRGRGSTRSRGRGRGDSCFYQRSIEEGDGAFGRSPREIQRSQSWDDRGERRFEKSARRDGARCGFEEGGAGPRKEHARSDSENWRSLREEQEEEEEGSWRLGAGPRRDGDRWRSASPDGGPRSAGWREHGERRRKFEFDLRGDRGGCGEEEGRGGGGSSHLRRCRAPEGFEEDKDGLPEWCLDDEDEEMGTFDASGAFLPLKKGPKEPIPEEQELDFQGLEEEEEPSEGLEEEGPEAGGKELTPLPPQEEKSSSPSPLPTLGPLWGTNGDGDETAEKEPPAAEDDIRGIQLSPGVGSSAGPPGDLEDDEGLKHLQQEAEKLVASLQDSSLEEEQFTAAMQTQGLRHSAAATALPLSHGAARKWFYKDPQGEIQGPFTTQEMAEWFQAGYFSMSLLVKRGCDEGFQPLGEVIKMWGRVPFAPGPSPPPLLGNMDQERLKKQQELAAAALYQQLQHQQFLQLVSSRQLPQCALREKAALGDLTPPPPPPPQQQQQQLTAFLQQLQALKPPRGGDQNLLPTMSRSLSVPDSGRLWDVHTSASSQSGGEASLWDIPINSSTQGPILEQLQLQHKFQERREVELRAKREEEERKRREEKRRQQQQEEQKRRQEEEELFRRKHVRQQELLLKLLQQQQAVPVPPAPSSPPPLWAGLAKQGLSMKTLLELQLEGERQLHKQPPPREPARAQAPNHRVQLGGLGTAPLNQWVSEAGPLWGGPDKSGGGSSGLGLWEDTPKSGGSLVRGLGLKNSRSSPSLSDSYSHLSGRPIRKKTEEEEKLLKLLQGIPRPQDGFTQWCEQMLHTLSATGSLDVPMAVAILKEVESPYDVHDYIRSCLGDTLEAKEFAKQFLERRAKQKASQQRQQQQEAWLSSASLQTAFQANHSTKLGPGEGSKAKRRALMLHSDPSILGYSLHGSSGEIESVDDY
partner: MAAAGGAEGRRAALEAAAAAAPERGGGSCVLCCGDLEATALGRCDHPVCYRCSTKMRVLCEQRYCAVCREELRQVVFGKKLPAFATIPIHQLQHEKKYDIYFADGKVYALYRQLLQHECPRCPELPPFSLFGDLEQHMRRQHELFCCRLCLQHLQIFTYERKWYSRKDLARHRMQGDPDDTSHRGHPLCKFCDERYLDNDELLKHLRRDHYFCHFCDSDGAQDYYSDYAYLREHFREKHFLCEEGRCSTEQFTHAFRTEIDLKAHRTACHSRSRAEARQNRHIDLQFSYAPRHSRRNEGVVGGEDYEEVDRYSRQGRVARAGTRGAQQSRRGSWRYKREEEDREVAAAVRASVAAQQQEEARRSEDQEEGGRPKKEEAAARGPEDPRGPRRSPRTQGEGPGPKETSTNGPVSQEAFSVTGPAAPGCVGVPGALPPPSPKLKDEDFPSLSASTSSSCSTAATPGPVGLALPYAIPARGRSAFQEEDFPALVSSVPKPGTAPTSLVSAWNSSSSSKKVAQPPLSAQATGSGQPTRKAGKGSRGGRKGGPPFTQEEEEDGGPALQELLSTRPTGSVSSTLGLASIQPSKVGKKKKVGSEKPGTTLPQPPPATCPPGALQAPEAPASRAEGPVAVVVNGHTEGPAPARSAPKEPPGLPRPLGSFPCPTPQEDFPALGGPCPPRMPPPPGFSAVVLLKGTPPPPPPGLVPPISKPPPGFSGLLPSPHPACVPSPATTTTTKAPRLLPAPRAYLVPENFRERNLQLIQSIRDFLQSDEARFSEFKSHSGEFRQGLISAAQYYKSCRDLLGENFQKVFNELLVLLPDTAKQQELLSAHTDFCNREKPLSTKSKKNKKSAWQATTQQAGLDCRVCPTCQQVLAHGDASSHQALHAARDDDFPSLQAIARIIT
B2: GRB10-interacting GYF protein 2 (Homo sapiens), Q6Y7W6-1 (parent)
chain: MAAETQTLNFGPEWLRALSSGGSITSPPLSPALPKYKLADYRYGREEMLALFLKDNKIPSDLLDKEFLPILQEEPLPPLALVPFTEEEQRNFSMSVNSAAVLRLTGRGGGGTVVGAPRGRSSSRGRGRGRGECGFYQRSFDEVEGVFGRGGGREMHRSQSWEERGDRRFEKPGRKDVGRPNFEEGGPTSVGRKHEFIRSESENWRIFREEQNGEDEDGGWRLAGSRRDGERWRPHSPDGPRSAGWREHMERRRRFEFDFRDRDDERGYRRVRSGSGSIDDDRDSLPEWCLEDAEEEMGTFDSSGAFLSLKKVQKEPIPEEQEMDFRPVDEGEECSDSEGSHNEEAKEPDKTNKKEGEKTDRVGVEASEETPQTSSSSARPGTPSDHQSQEASQFERKDEPKTEQTEKAEEETRMENSLPAKVPSRGDEMVADVQQPLSQIPSDTASPLLILPPPVPNPSPTLRPVETPVVGAPGMGSVSTEPDDEEGLKHLEQQAEKMVAYLQDSALDDERLASKLQEHRAKGVSIPLMHEAMQKWYYKDPQGEIQGPFNNQEMAEWFQAGYFTMSLLVKRACDESFQPLGDIMKMWGRVPFSPGPAPPPHMGELDQERLTRQQELTALYQMQHLQYQQFLIQQQYAQVLAQQQKAALSSQQQQQLALLLQQFQTLKMRISDQNIIPSVTRSVSVPDTGSIWELQPTASQPTVWEGGSVWDLPLDTTTPGPALEQLQQLEKAKAAKLEQERREAEMRAKREEEERKRQEELRRQQEEILRRQQEEERKRREEEELARRKQEEALRRQREQEIALRRQREEEERQQQEEALRRLEERRREEEERRKQEELLRKQEEEAAKWAREEEEAQRRLEENRLRMEEEAARLRHEEEERKRKELEVQRQKELMRQRQQQQEALRRLQQQQQQQQLAQMKLPSSSTWGQQSNTTACQSQATLSLAEIQKLEEERERQLREEQRRQQRELMKALQQQQQQQQQKLSGWGNVSKPSGTTKSLLEIQQEEARQMQKQQQQQQQHQQPNRARNNTHSNLHTSIGNSVWGSINTGPPNQWASDLVSSIWSNADTKNSNMGFWDDAVKEVGPRNSTNKNKNNASLSKSVGVSNRQNKKVEEEEKLLKLFQGVNKAQDGFTQWCEQMLHALNTANNLDVPTFVSFLKEVESPYEVHDYIRAYLGDTSEAKEFAKQFLERRAKQKANQQRQQQQLPQQQQQQPPQQPPQQPQQQDSVWGMNHSTLHSVFQTNQSNNQQSNFEAVQSGKKKKKQKMVRADPSLLGFSVNASSERLNMGEIETLDDY
partner: B1 partner
B3: GRB10-interacting GYF protein 2 (Homo sapiens), Q6Y7W6-1 (parent)
chain: B2 chain

Variants of: B1
Details: with zn598_human ZNF598, Q86UK7

Row | effect of a mutation on the interaction | Variant
1 | disrupting interaction strength | Y479A;F490A;W498A;F504A

Variants of: B2
Details: with zn598_human ZNF598, Q86UK7

Row | effect of a mutation on the interaction | Variant
2 | disrupting interaction strength | Y538A;F549A;W557A;F563A

Variants of: B3
Details: with EIF4E2, O60573-1
EIF4E2, O60573-1, sequence (O60573 whole entry): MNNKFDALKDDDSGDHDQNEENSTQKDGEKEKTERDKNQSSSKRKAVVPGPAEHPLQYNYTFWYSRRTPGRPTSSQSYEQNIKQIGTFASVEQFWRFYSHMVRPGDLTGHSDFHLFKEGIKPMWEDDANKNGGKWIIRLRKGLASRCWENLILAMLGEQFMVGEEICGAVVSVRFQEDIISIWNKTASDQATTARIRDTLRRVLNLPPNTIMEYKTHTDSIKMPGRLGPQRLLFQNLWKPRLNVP

Row | effect of a mutation on the interaction | Variant
3 | with no effect | Y538A;F549A;W557A;F563A
4 | with no effect | W288A;F300A;F306A
5 | disrupting interaction strength | Y41A;Y43A;M48A;L49A

Variants of: B3
Details: with rl22l_human RPL22L1, Q6P5R6

Row | effect of a mutation on the interaction | Variant
6 | with no effect | Y538A;F549A;W557A;F563A
